# Experimental data published in patent US20180339041A1 (Kyowa Kirin, published 2018).
# B1: anti-human Gas6 mouse monoclonal antibody KM5320 (KM5320-mKG1 antibody) (antibody, V domains shown)
# VH: QIQLVQSGPELKKPGETVKISCKASGYTFTNYGMNWVKQAPGKGLKWMGWINTETGEPTYSDDFKGRFAFSLETSATTAYLQINNLRNEDMATYFCAREDGYYGTLDYWGQGTSVTVSS
# VL: SIVMTQTPKFLLVSAGDRVTITCKASQSVSNDVAWYQQKPGQSPKVLIYYASNRYTGVPDRFTGSGYGTDFTFTISTVQAEDLAVYFCQQDYSSPWTFGGGTKLEIK
# notes: Hybridoma-derived mouse IgG1, kappa; also called KM5320 antibody
# B2: anti-human Gas6 mouse monoclonal antibody KM5321 (KM5321-mKG1 antibody) (antibody, V domains shown)
# VH: QIQLVQSGPELKKPGETVKISCRASGYTFTNYGMNWVKQAPGKGLKWMGWINTNTGEPTYTEEFKGRFAFSLETSATTAYLQINDLKNEDTATYFCARDEGWFVYWGQGTLITVSA
# VL: ETTVTQSPASLSVATGEKVTIRCITSTDIDDDMNWYQQKPGEPPKLLISEGNTLRPGVPSRFSSSGYGTDFVFTIENTLSEDVADYYCLQTDSVPLTFGAGTKLELK
# notes: Hybridoma-derived mouse IgG1, kappa; also called KM5321 antibody
# Columns and labels:
# [1] = biological target: T1, C-terminally FLAG-tagged mouse Gas6 recombinant protein (mGas6-F) (mouse, UniProt Q61592 28-674, limits assumed, gamma-carboxylated glutamic acid residues in the Gla domain (producer cells co-express rat VKOR and human GGCX); positions not given); test: ELISA: mGas6-F (1 µg/mL) captured on coated anti-FLAG M2 antibody; biotinylated test antibody; streptavidin-HRP/TMB; absorbance 450-570 nm, N=2 (Example 6) [D]
# T1 construct: also called mouse Gas6-F
# T1 sequence (looked up): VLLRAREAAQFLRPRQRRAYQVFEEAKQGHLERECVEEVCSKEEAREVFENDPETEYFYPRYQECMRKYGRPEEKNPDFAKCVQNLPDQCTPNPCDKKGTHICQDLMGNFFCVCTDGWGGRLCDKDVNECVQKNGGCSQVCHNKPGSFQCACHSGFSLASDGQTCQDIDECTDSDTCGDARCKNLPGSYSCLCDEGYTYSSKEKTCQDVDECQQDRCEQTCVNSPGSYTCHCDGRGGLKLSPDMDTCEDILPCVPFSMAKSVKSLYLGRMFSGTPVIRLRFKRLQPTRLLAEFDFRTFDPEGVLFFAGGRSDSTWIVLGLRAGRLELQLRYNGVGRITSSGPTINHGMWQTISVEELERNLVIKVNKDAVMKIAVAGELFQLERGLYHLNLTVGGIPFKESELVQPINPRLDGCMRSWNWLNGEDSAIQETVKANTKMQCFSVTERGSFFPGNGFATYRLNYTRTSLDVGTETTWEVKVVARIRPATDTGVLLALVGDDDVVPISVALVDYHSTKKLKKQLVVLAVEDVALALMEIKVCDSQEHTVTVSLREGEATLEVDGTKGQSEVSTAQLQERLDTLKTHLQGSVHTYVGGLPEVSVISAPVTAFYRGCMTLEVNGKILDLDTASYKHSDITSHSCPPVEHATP
# Method: (§1) First, 2 μg/mL anti-FLAG antibody [Monoclonal ANTI-FLAG M2 antibody produced in mouse (manufactured by Sigma-Aldrich Co. LLC) diluted with PBS (manufactured by Nacalai Tesque, Inc.)] was dispensed at 50 μL/well to a 96-well plate for ELISA (manufactured by Nalge Nunc International), and the plate was left standing overnight at 4° C. for adsorption. After removal of the immobilization solution, 1% BSA-PBS (manufactured by Nacalai Tesque, Inc.) was added thereto at 300 μL/well, and the plate was left standing at room temperature for 1 hour for blocking and washed five times with Tween 20-PBS (manufactured by Wako Pure Chemical Industries Ltd.).
# (§2) Each antibody solution was dispensed thereto at 50 μL/well, and the plate was left standing at room temperature for 1 hour. This plate was washed five times with Tween 20-PBS. Then, Streptavidin HRP Conjugate (manufactured by R&D Systems, Inc.) diluted 200-fold with 1% BSA-PBS was dispensed thereto at 50 μL/well, and the plate was left standing at room temperature for 1 hour. This plate was washed five times with Tween 20-PBS, and TMB (manufactured by Sigma-Aldrich Co. LLC) was added thereto at 50 μL/well and reacted. […] The absorbance at a sample wavelength of 450 nm and a reference wavelength of 570 nm (450 nm-570 nm) was measured using a plate reader.
# [2] = biological target: T1, C-terminally FLAG-tagged mouse Gas6 …; test: competition ELISA: mAxl-mFc coated; mGas6-F at 50 ng/mL final premixed with the antibody; bound Gas6-F detected with anti-FLAG M2-HRP; blocked partner mAxl-mFc (Examples 5(4) and 7) [C]
# [3] = biological target: T2, C-terminally FLAG-tagged human Gas6 recombinant protein (hGas6-F) (human, UniProt Q14393 31-678, gamma-carboxylated glutamic acid residues in the Gla domain (producer cells co-express rat VKOR and human GGCX); positions not given); test: ELISA: hGas6-F (1 µg/mL) captured on coated anti-FLAG M2 antibody; biotinylated test antibody; streptavidin-HRP/TMB; absorbance 450-570 nm, N=2 (Example 6) [A]
# T2 construct: also called human Gas6-F; human Gas6 protein
# T2 sequence: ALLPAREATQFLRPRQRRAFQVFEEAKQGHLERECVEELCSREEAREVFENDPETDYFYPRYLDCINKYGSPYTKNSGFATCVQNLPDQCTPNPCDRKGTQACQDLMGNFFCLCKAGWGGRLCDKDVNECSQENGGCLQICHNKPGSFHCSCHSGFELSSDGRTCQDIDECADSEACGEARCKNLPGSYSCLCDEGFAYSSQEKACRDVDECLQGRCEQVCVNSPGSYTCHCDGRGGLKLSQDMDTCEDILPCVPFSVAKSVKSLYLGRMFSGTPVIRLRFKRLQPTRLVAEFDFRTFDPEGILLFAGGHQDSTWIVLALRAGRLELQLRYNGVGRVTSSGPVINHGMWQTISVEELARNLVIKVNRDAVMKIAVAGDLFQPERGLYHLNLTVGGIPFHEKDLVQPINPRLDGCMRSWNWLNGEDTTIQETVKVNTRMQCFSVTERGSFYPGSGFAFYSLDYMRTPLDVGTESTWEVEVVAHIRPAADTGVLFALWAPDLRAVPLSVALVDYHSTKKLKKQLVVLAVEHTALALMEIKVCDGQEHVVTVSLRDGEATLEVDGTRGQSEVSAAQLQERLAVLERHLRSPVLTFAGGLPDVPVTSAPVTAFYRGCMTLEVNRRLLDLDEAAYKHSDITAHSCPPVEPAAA
# Method: as §1, §2
# [4] = biological target: T2, C-terminally FLAG-tagged human Gas6 …; test: ELISA, Gas6-F captured by anti-FLAG, biotinylated antibody
# Method: After removal of the immobilization solution, 1% BSA-PBS (manufactured by Nacalai Tesque, Inc.) was added thereto at 300 μL/well, and the plate was left standing at room temperature for 1 hour for blocking and washed five times with Tween 20-PBS (manufactured by Wako Pure Chemical Industries Ltd.).
# Each antibody solution was dispensed thereto at 50 μL/well, and the plate was left standing at room temperature for 1 hour. This plate was washed five times with Tween 20-PBS. Then, Streptavidin HRP Conjugate (manufactured by R&D Systems, Inc.) diluted 200-fold with 1% BSA-PBS was dispensed thereto at 50 μL/well, and the plate was left standing at room temperature for 1 hour. This plate was washed five times with Tween 20-PBS, and TMB (manufactured by Sigma-Aldrich Co. LLC) was added thereto at 50 μL/well and reacted. At an appropriate point in time, the reaction was terminated by the addition of 1 N hydrochloric acid (manufactured by Wako Pure Chemical Industries Ltd.) at 50 μL/well. The absorbance at a sample wavelength of 450 nm and a reference wavelength of 570 nm (450 nm-570 nm) was measured using a plate reader.
# [5] = biological target: T2, C-terminally FLAG-tagged human Gas6 …; test: cell-based or functional assay
Binder,EC50 (read off the curve) [1] [ng/mL],IC50 (read off the curve) [2] [ng/mL],EC50 (read off the curve) [3] [ng/mL],antibody concentration at which binding activity was detected [4] [µg/mL],antibody:Gas6 molar concentration ratio at complete inhibition of reporter activation [5]
B1,~3,~90,~3,0.0003,2 antibody:Gas6 molar ratio
B2,~4,~30,~4,0.0003,2 antibody:Gas6 molar ratio
